In patent US20240279345A1, “ALPHA 5 BETA 1 INTEGRIN BINDING AGENTS AND USES THEREOF” (PASITHEA THERAPEUTICS CORP., priority 2021, published 2024):

Legend:
U87MG cells = assay: Cellular detachment of U87MG cells from FN coated plates; type: cell-based; conditions: for antibody concentration at which cellular detachment was seen: A-15B08 at 1 and 3 hours, A2-7A05 only obvious at 3 hours; for cellular detachment (cell rounding) of U87MG cells from FN coated plates: antibodies 2.0-0.016 μg/mL, cRGD 20-0.16 μM, 1 hour and 3 hours
Procedure: The A-15B08 and A2-7A05 antibodies and cRGD were also tested for their ability to induce dissociation of cellular α5β1 integrin from FN. U87MG cells (HTB-14™, ATCC, Manassas, VA) which were originally derived from a Glioblastoma tumor, are known to express α5β1 integrin, and adhere to FN coated plates. After an overnight incubation on FN coated plates, the U87MG cells formed a loosely packed monolayer and have extended spindle shapes. If the cells are induced to detach from the plates, by trypsin for example, the attachment points are released, and the cells become round. This type of change in morphology was used to assess whether the antibodies and the small molecule inhibitor cRGD can induce U87MG cells to dissociate from FN coated plates.
The following method was used to assess cellular detachment activity: A 96-well cell culture plate (Thermo Fisher Scientific, Waltham, MA, cat. no. 165306) was coated with FN (Human Fibronectin, R&D Systems, Minneapolis, MN 55413, cat. no. 1918-FN) by incubation of 50 uL per well 32 μg/mL FN in 1×PBS for 1 hour at 37° C., then washed 2× with EMEM media (ATCC, Manassas, VA, cat. no. 30-2003) supplemented with 10% Fetal Bovine Serum (FBS; ATCC, Manassas, VA, cat. no. 30-2021). U87MG cells were plated at 20,000 cells per well in EMEM media+10% FBS overnight to allow for maximum adherence. The next day the media was replaced with fresh media that included a 1:5 dilution series of antibodies A-15B08, A2-7A05 or isotype control IgG4 at concentrations of 2.0, 0.4, 0.08 and 0.016 μg/mL or cRGD at 20, 4, 0.8 and 0.16 μM. All tests were run in duplicate. Cell morphology was assessed, and images were captured using a 10× objective of an ECHO Rebel light microscope (ECHO, San Diego, CA).

rh-α5β1 = rh-α5β1 (Homo sapiens, UniProt P05556+P08648); assay: Competition binding studies by Biolayer Interferometry (epitope groups); conditions: for binding of rh-α5β1 complexed with antibody to C-14D12 on the sensor: C-14D12 immobilized on sensor; for Response (nm) / % Response: secondary mAb pre-mixed with 20 nM rh-α5β1; for % Response: relative to antigen alone; for epitope group: two epitope groups among 6 antibodies
Method in brief: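 Pre-mixed competition BLI: FN-blocking lead antibodies A2-7A05, C-14D12 or A-15B08 loaded on sensors (700 s), quenched, baselined, then exposed 600 s to partner antibody preincubated 1 hr with rh-α5β1. Response relative to antigen alone: >120% = antibodies pair, <80% = antibodies block.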

[1] = target: T1, rh-α5β1 in active conformation (binding to 12G10) (Homo sapiens, UniProt P05556+P08648); assay: 12G10 conformation assay (α5β1 integrin binding to 12G10); conditions: 0.5 mM MnCl2
T1 construct: purchased Acro Biosystems IT1-H52W5
Procedure: A Nunc MaxiSorp Flat-Bottom 96-well plate (Invitrogen, Waltham, MA, cat. no. 44-2404-21) was coated with 12G10 antibody at 2 μg/mL in 0.2M carbonate-bicarbonate buffer, pH9.4 (Thermo Scientific, Rockford, IL, cat. No. 28382) by incubation overnight at 4° C. Plates were then washed 3 times with Wash Buffer (1× Tris Buffered Saline containing 0.05% Tween20), then blocked with 2% BSA in 1×TBS for 2 hours at room temperature (RT). The human IgG4 chimeric versions of the antibodies were diluted in Standard Diluent (2% BSA, 1×TBS, 0.05% Tween20) containing 0.05 μg/mL rh-α5β1-6×His tagged protein (Acro Biosystems, Newark, DE, cat. no. IT1-H52W5) and 0.5 mM MnCl2 (TEKnova, Hollister, CA, cat. no. M0350) to generate a 7 point 1:5 antibody dilution series ranging from 10,000 ng/mL to 0.64 ng/mL. In addition to human IgG4 chimeric antibodies A-15B08, C-14D12 and A2-7A05, three other antibodies tested included IgG4 isotype control (human IgG4, Kappa, anti-fluorescein Ab00102-13.0, Absolute Antibody, Wilton, UK), anti-integrin alpha-5 clone SNAKA51 (MilliporeSigma, St. Louis, MO, cat. no. MABT201) known to induce integrin alpha-5 into an active conformation, and finally the 12G10 antibody itself which can directly compete with the 12G10 bound to the MaxiSorp plate. For the assays, 100 μL of the antibody dilution series, His-tagged-α5β1 mixture was added to the wells after the blocking solution was removed and wells were washed 3 times. […] Absorbance 450 nm was measured. Data points were normalized to the absorbance of the well containing no antibody for each dilution series and reported as Percent Binding. […]

[2] = antibody preincubated with rh-α5β1

Sequence of rh-α5β1 (P08648 42-894 limits assumed): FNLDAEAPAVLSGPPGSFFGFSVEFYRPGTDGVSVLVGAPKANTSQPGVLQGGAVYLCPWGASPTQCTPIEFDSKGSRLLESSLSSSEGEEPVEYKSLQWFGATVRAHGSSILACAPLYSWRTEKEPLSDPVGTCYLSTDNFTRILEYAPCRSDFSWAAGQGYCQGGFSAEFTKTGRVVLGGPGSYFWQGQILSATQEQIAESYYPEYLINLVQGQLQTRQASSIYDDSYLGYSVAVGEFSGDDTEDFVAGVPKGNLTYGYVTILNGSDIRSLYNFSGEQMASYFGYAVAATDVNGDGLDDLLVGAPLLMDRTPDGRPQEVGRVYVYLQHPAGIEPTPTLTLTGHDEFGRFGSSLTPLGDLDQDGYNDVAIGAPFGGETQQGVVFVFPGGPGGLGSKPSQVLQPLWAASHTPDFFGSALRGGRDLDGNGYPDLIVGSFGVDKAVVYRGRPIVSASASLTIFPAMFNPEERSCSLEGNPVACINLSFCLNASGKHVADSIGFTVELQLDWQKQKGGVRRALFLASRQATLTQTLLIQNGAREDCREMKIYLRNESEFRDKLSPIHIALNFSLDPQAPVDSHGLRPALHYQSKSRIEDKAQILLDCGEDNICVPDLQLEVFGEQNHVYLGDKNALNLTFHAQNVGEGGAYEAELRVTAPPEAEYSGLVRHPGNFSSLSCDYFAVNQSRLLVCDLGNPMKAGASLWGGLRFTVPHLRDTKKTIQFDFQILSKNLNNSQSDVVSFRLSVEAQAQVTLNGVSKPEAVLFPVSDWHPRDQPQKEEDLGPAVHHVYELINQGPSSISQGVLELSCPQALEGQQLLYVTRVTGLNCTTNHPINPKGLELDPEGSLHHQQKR
Sequence of rh-α5β1 (P08648 895-995 limits assumed): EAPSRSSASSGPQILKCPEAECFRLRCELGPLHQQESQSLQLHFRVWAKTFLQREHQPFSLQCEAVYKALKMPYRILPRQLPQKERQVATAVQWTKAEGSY
Sequence of rh-α5β1 (P05556 21-728 limits assumed): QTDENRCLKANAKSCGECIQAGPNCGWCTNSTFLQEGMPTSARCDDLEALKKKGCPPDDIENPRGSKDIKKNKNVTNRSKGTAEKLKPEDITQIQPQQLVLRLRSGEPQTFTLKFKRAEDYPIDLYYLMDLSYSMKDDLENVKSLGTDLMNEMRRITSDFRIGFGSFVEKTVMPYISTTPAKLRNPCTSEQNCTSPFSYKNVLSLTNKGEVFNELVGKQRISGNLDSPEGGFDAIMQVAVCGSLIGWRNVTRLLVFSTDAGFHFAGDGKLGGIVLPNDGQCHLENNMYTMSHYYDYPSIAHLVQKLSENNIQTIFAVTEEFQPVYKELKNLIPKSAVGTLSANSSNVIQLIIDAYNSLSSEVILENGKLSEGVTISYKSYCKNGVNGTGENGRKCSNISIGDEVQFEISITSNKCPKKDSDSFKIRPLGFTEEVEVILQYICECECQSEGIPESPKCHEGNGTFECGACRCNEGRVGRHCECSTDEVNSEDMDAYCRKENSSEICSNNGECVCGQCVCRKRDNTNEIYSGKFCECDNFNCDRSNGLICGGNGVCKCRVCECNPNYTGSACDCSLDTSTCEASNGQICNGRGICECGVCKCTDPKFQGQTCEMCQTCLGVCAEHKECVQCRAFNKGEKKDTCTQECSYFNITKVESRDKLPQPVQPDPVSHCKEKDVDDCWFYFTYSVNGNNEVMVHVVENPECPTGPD
T1 sequence (P08648 42-894 limits assumed): as the sequence (P08648 42-894 limits assumed) above
T1 sequence (P08648 895-995 limits assumed): as the sequence (P08648 895-995 limits assumed) above
T1 sequence (P05556 21-728 limits assumed): as the sequence (P05556 21-728 limits assumed) above

binding of rh-α5β1 complexed with antibody to A-15B08 on the sensor (rh-α5β1; antibody preincubated with rh-α5β1, A-15B08 immobilized on sensor) | binding of rh-α5β1 complexed with antibody to C-14D12 on the sensor (rh-α5β1; [2]) | Response (nm) (rh-α5β1; immobilized mAb A2-7A05) | % Response (rh-α5β1; immobilized mAb A2-7A05) | Response (nm) (rh-α5β1; immobilized mAb A-15B08) | % Response (rh-α5β1; immobilized mAb A-15B08) | Response (nm) (rh-α5β1; immobilized mAb C-14D12) | % Response (rh-α5β1; immobilized mAb C-14D12) | epitope group (rh-α5β1) | binding of rh-α5β1 complexed with antibody to A2-7A05 on the sensor (rh-α5β1; antibody preincubated with rh-α5β1, A2-7A05 immobilized on sensor) | reduction of α5β1 integrin binding to 12G10 ([1]; human IgG4 chimeric antibodies) | Molecule | antibody concentration at which cellular detachment was seen (U87MG cells) | cellular detachment (cell rounding) of U87MG cells from FN coated plates (U87MG cells) | effect on α5β1 integrin binding to 12G10 ([1]; dilution series 10,000 to 0.64 ng/mL)
able to bind | able to bind | −0.17 nm | −451.35% | 0.31 nm | 150.63% | 0.31 nm | 139.39% | one group | – | – | A2-7A05: anti-α5β1 antibody, VH SEQ ID NO:77, VL SEQ ID NO:78; tested as mouse hybridoma antibody and as human IgG4 chimera (antibody, V domains shown, A2-7A05 VH Sequence; A2-7A05 VL Sequence, tested as mouse hybridoma antibody and as human IgG4 chimera) VH: QVQLQQPGAELVKPGASVKLSCKASGYTFTIYWINWVKQRPGQGLEWIGKIYPGSISTDYNEKFKSKATLTVDTSSSTAYMQLSSLTSDDSAVYYCAITGTGGLAYWGQGTLVTVSA VL: ENVLTQSPAIMSASLGEKVTMTCRASSSVNYMYWYQQKSDASPKLWIYFTSSLAPGVPGRFSGSGSGNSYSLTISTMEGEDAATYYCQQFTTSPFTFGSGTKLEIK | 0.4 µg/mL | much lower level | did not reduce α5β1 integrin binding to 12G10
– | not able to bind | 0.25 nm | 666.22% | −0.15 nm | −73.81% | −0.09 nm | −38.40% | second group | able to bind | approximately 50% | A-15B08: anti-α5β1 antibody, VH SEQ ID NO:25, VL SEQ ID NO:26; tested as mouse hybridoma antibody and as human IgG4 chimera (antibody, V domains shown, A-15B08 VH Sequence; A-15B08 VL Sequence, tested as mouse hybridoma antibody and as human IgG4 chimera) VH: QVQLKESGPGLVAPSQSLSITCTISGFSLTSYGVHWVRQPPGKGLEWLVVIWSDGSTTYNSTLKSRLSISKDNSKSQVFFKMNSLQTDDTAMYYCARHYDYDGDWFAYWGQGTLVTVSA VL: QIVLTQSPAIMSASLGERVTMTCTASSRVSSNSLHWYQQKPGSSPKLWIYSTSNLASGVPARFSGSGSGTSYSLTISSMEAEDAATYYCHQYLRSPPTFGGGTKLEIK | 0.4 µg/mL | significant cell rounding | –
